# Measurements published in US20200024360A1 (Janssen / Centocor, published 2020).
# Where a chain is given by its changes, count along the chain named. Numbers in names are those of the source.
# T1: chimpanzee PSMA, full length (Pan troglodytes, UniProt Q04609 1-750 (human entry))
# T1 construct: On transfected HEK293F cells; also called chimp PSMA; H2Q3K5_PANTR
# T1 chain: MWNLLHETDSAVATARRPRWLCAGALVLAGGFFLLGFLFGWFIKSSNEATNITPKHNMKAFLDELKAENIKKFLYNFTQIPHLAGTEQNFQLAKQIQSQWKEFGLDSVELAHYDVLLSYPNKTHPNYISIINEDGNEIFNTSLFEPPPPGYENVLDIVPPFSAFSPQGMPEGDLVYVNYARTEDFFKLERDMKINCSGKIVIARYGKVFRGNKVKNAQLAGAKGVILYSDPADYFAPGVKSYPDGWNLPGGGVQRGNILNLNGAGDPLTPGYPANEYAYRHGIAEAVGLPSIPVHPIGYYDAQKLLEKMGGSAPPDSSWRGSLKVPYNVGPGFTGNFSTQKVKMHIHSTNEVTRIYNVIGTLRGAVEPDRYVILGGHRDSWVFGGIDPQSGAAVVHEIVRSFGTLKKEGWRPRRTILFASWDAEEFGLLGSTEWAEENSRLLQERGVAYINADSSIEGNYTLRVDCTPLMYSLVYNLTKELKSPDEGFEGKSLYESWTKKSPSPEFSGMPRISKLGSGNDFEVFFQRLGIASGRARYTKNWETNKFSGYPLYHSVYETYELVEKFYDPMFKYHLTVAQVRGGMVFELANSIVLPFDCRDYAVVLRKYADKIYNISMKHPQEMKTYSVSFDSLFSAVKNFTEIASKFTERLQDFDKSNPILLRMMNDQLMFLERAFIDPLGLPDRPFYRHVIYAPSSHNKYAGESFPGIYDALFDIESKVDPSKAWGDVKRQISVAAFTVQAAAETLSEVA
# T2: Cynomolgous monkey PSMA, full length (Macaca fascicularis, UniProt Q04609 1-750 (human entry))
# T2 construct: On transfected HEK293F cells; also called cyno PSMA; EHH56646.1
# T2 chain: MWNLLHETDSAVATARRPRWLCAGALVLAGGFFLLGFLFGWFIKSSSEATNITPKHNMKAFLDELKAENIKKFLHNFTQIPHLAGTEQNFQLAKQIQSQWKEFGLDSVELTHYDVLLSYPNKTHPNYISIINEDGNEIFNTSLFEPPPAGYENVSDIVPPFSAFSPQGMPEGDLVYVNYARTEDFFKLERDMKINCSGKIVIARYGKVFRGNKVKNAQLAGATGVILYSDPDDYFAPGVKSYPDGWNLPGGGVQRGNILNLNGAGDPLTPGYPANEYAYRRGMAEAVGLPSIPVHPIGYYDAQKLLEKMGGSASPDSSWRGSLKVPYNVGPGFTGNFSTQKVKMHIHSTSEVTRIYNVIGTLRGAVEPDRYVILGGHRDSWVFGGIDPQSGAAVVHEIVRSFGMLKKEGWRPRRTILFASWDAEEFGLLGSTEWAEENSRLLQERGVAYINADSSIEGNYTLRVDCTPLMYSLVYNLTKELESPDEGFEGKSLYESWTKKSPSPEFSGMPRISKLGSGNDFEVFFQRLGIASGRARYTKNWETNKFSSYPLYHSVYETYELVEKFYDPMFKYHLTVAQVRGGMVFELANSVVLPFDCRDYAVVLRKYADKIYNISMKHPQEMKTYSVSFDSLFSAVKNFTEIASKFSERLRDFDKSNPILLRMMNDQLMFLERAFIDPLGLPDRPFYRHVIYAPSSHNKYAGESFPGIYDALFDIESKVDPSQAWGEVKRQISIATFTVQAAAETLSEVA
# B1: CD3B156 (antibody, V domains shown)
# VH: EVQLVESGGGLVQPGGSLKLSCAASGFTFNTYAMNWVRQASGKGLEWVGRIRSKYNGYATYYAASVKGRFTISRDDSKNTAYLQMNSLKTEDTAVYYCTRHGNFGNSYVSWFAYWGQGTLVTVSS
# VL: QSVLTQPPSVSAAPGQKVTISCRSSTGAVTTSNYANWVQQLPGTAPKGLIGGTNKRAPGIPDRFSGSKSGTSATLGITGLQTGDEADYYCALWYSNLWVFGGGTKLTVL
# notes: also called CD3H144/CD3L64
# B2: CD3B147 (antibody, V domains shown)
# VH: EVQLLESGGGLVQPGGSLRLSCAASGFTFNTYAMNWVRQAPGKGLEWVARIRSKYNNYATYYADSVKGRFTISRDNSKNTLYLQMNSLRAEDTAVYYCAKHGNFGNSYVSWFAYWGQGTLVTVSS
# VL: QAVVTQEPSLTVSPGGTVTLTCRSSTGAVTTSNYANWVQQKPGQAPRGLIGGTNKRAPGTPARFSGSLLGGKAALTLSGAQPEDEAEYYCALWYSNLWVFGGGTKLTVL
# notes: also called CD3H142/CD3L63
# B3: CD3B151 (antibody, V domains shown)
# VH: B2 VH with A99V
# VL: B2 VL
# notes: also called CD3H143/CD3L63
# B4: CD3B154 (antibody, V domains shown)
# VH: B2 VH with A99V
# VL: B2 VL with A2T, A80V
# notes: also called CD3H143/CD3L66
# B5: CD3B155 (antibody, V domains shown)
# VH: B1 VH
# VL: B2 VL
# notes: also called CD3H144/CD3L63
# B6: PS3B9 (M84) (bispecific antibody, human IgG4 S228P, kappa, lambda, F234A L235A)
# heavy chain, PSMA arm (PSMB127): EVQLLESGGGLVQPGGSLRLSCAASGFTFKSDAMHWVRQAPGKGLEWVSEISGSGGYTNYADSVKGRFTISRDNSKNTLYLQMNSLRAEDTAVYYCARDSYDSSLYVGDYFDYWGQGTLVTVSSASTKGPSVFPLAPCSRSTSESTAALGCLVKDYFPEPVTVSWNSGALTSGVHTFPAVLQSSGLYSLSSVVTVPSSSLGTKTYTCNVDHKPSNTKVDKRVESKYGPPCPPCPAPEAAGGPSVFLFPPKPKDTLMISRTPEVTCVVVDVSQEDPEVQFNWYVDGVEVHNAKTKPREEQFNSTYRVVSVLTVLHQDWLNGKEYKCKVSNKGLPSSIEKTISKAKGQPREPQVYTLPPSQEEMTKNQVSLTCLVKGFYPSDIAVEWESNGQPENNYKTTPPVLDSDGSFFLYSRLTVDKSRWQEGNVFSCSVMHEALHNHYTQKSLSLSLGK
# light chain, PSMA arm (PSMB127): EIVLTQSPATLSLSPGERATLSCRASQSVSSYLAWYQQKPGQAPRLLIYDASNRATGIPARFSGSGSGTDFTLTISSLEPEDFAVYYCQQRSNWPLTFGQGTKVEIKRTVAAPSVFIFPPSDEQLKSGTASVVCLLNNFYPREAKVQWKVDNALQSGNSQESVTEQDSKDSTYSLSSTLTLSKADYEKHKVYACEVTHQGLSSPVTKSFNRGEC
# heavy chain, CD3 arm (CD3B217): EVQLLESGGGLVQPGGSLRLSCAASGFTFNTYAMNWVRQAPGKGLEWVARIRSKYNNYATYYADSVKGRFTISRDNSKNTLYLQMNSLRAEDTAVYYCVKHGNFGNSYVSWFAYWGQGTLVTVSSASTKGPSVFPLAPCSRSTSESTAALGCLVKDYFPEPVTVSWNSGALTSGVHTFPAVLQSSGLYSLSSVVTVPSSSLGTKTYTCNVDHKPSNTKVDKRVESKYGPPCPPCPAPEAAGGPSVFLFPPKPKDTLMISRTPEVTCVVVDVSQEDPEVQFNWYVDGVEVHNAKTKPREEQFNSTYRVVSVLTVLHQDWLNGKEYKCKVSNKGLPSSIEKTISKAKGQPREPQVYTLPPSQEEMTKNQVSLTCLVKGFYPSDIAVEWESNGQPENNYKTTPPVLDSDGSFLLYSKLTVDKSRWQEGNVFSCSVMHEALHNHYTQKSLSLSLGK
# light chain, CD3 arm (CD3B217): QAVVTQEPSLTVSPGGTVTLTCRSSTGAVTTSNYANWVQQKPGQAPRGLIGGTNKRAPGTPARFSGSLLGGKAALTLSGAQPEDEAEYYCALWYSNLWVFGGGTKLTVLGQPKAAPSVTLFPPSSEELQANKATLVCLISDFYPGAVTVAWKADSSPVKAGVETTTPSKQSNNKYAASSYLSLTPEQWKSHRSYSCQVTHEGSTVEKTVAPTECS
# notes: also called PSMB127 x CD3B217
# B7: PS3B26 (bispecific antibody, human IgG4 S228P, kappa, lambda, F234A L235A)
# heavy 1: not shown
# light 1: not shown
# heavy 2: B6 heavy chain, CD3 arm (CD3B217) with L5V, D64A, N76D, T80S, R89K, A90T, V99A, K100R
# light 2: B6 light chain, CD3 arm (CD3B217) with A2T, A80V
# notes: IgG4 PAA; PSMA arm chains first, then CD3 arm (F405L, R409K); also called PSMB126 x CD3B219
# B8: PS3B8 (M81) (bispecific antibody, human IgG4 S228P, kappa, lambda, F234A L235A)
# heavy chain, PSMA arm (PSMB126): not shown
# light chain, PSMA arm (PSMB126): not shown
# heavy chain, CD3 arm (CD3B217): B6 heavy chain, CD3 arm (CD3B217)
# light chain, CD3 arm (CD3B217): B6 light chain, CD3 arm (CD3B217)
# notes: also called PSMB126 x CD3B217
# B9: PS3B4 (M52) (bispecific antibody, human IgG4 S228P, kappa, lambda, F234A L235A)
# heavy chain, PSMA arm (PSMB122): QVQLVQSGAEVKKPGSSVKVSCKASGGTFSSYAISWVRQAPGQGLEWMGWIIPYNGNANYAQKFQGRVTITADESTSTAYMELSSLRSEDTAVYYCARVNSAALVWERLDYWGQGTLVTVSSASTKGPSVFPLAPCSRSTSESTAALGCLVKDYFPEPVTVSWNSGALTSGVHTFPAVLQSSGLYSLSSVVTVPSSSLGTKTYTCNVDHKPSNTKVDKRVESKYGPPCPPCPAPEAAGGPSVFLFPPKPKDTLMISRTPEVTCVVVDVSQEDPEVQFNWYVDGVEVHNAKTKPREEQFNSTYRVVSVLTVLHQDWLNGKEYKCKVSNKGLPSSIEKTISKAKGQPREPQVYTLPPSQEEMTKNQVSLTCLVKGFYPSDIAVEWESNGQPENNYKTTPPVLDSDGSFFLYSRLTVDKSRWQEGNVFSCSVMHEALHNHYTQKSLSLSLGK
# light chain, PSMA arm (PSMB122): DIQMTQSPSSLSASVGDRVTITCRASQSIDRWLNWYQQKPGKAPKLLIYAASSLQSGVPSRFSGSGSGTDFTLTISSLQPEDFATYYCQQSPRYPLTFGQGTKVEIKRTVAAPSVFIFPPSDEQLKSGTASVVCLLNNFYPREAKVQWKVDNALQSGNSQESVTEQDSKDSTYSLSSTLTLSKADYEKHKVYACEVTHQGLSSPVTKSFNRGEC
# heavy chain, CD3 arm (CD3B217): B6 heavy chain, CD3 arm (CD3B217)
# light chain, CD3 arm (CD3B217): B6 light chain, CD3 arm (CD3B217)
# notes: also called PSMB122 x CD3B217
# How the values were obtained:
# [1] = target: T3, cynomolgus CD3ε on primary cynomolgus CD4+ T cells (cynomolgus monkey, UniProt Q95LI5 22-198); experiment: flow cytometry on primary cynomolgus CD4+ T cells (CD3e), anti-human IgG (H+L) Alexa Fluor 647
# T3 construct: whole, on cells
# T3 sequence (Q95LI5 22-198): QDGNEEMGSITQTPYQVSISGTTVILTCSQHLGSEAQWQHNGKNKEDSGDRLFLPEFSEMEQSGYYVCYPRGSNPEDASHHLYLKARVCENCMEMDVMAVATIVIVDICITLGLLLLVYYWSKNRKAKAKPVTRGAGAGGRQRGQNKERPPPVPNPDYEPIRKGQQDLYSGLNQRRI
# Procedure: (§1) The resulting panel of anti-CD3 antibodies was tested for binding against cell-surface CD3ε on primary human T cells. To do this, binding of antibodies from expression supernatants was visualized using a polyclonal anti-human secondary antibody and analyzed by flow cytometry. Briefly, binding of anti-CD3 antibodies to cell-surface CD3E was assessed by flow cytometry using primary Human T lymphocytes purified by negative selection (Biological Specialty, Colmar, USA). Expression supernatants or purified antibodies were normalized to 10 μg/ml in media or FACS buffer (BD BioSciences), respectively. 2×10⁵ cells were aliquoted into wells of a 96 well round-bottomed plate (CoStar) for labeling. Antibodies in expression supernatant were added to cells and incubated for 45 min at 4° C. Following centrifugation at 1300 rpm for 3 min and removal of supernatant, 50 μL of anti-human IgG (H+L) Alexa Fluor 647 secondary antibody (Life technologies Inc.) was incubated with the cells at a final concentration of 10 μg/mL for 30 min at 4° C. away from direct light. Following washing and resuspension in 30 μL FACs buffer (BD BioSciences). Sample collection was performed on an Intellicyt HTFC system using ForeCyt software. Viable single cells were gated prior to analysis of binding using the green or red fixable live/dead dyes (Life Technologies Inc.) and forward/side scatter area and height parameters, respectively. Graphs were generated in GraphPad Prism version 5 using mean fluorescence intensity values.
# Binding analysis of the anti-CD3 hits to primary cynomolgus CD4⁺ T cells was then tested in order to assess the retention of cross-reactivity. Purified CD4⁺ T cells from the peripheral blood of cynomolgus monkeys (Zen Bio, Triangle Research Park, USA were used). Assay protocols were similar to those described above.
# [2] = target: T4, human CD3ε on primary human T cells (human, UniProt P07766 23-207); experiment: flow cytometry on primary human T cells (cell-surface CD3e), anti-human IgG (H+L) Alexa Fluor 647; one intermediate concentration of the titration is shown
# T4 construct: whole, on cells; Part of the TCR-CD3 complex on the cells; also called cell-surface CD3ε; CD3E
# T4 sequence (P07766 23-207): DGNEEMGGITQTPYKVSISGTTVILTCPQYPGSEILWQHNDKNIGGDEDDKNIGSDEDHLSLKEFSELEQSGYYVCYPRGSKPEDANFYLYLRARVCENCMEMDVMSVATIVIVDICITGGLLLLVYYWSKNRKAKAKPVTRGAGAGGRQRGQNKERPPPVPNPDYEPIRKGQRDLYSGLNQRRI
# Procedure: as §1
# [3] = target: T5, human PSMA (prostate specific membrane antigen), full length (human, UniProt Q04609 1-750); experiment: flow cytometry, bispecific antibody titrated on LNCaP cells (human PSMA), anti-human kappa light chain PE
# T5 construct: On LNCaP or C4-2B cells (endogenous) or transduced HEK293F cells; also called FOLH1_HUMAN; hPSMA
# Procedure: (§2) PSMA×CD3 bispecific antibodies were tested for binding to PSMA positive cell lines LNCAP, human PSMA-HEK, Chimpanzee-PSMA-HEK and Cynomolgous monkey PSMA-HEK. To assess the binding capabilities of the PSMA bispecific antibodies, the cell-binding assay was utilized (described previously). Briefly, PSMA expressing tumor cells are bound by bispecific antibodies at known concentrations and the bound antibody is detected by an anti-human kappa light chain PE conjugated detection reagent (Invitrogen). The Mean Fluorescents Intensity (MFI) is the measure of bound bispecific antibody. The MFI is converted to a relative EC₅₀. EC₅₀ is a commonly used dose-response curve, where the half maximal effective concentration or the EC₅₀ point is defined as the inflection point of the curve. EC₅₀ s were determined by measuring cell bound bispecific and known concentrations. […] The dose response curves were then diluted down to that of background or no bispecific binding. The inflection point of this curve reflects the EC₅₀ point. The calculated EC₅₀ is determined by taking the ug/ml amount of bispecific antibody at the EC₅₀ point and converting it to a molarity value based on the MW of the bispecific antibody. Bispecific antibodies were normalized for protein concentration and then incubated with the same number of cells expressing either human or cyno PSMA. The MFI at each concentration was collected by flow cytometry and plotted as a function of concentration. Data was transformed via log 10 and then plotted. Nonlinear regression of binding curves was done to determine EC₅₀ s. These relative values were used for ranking PSMA binding to target cells.
# [4] = target: T5, human PSMA (prostate specific membrane …); experiment: FACS, whole cell binding, LNCaP
# Procedure: as §2
# [5] = target: T1, chimpanzee PSMA, full length; experiment: FACS, whole cell binding, chimp PSMA HEK
# Procedure: as §2
# [6] = target: T2, Cynomolgous monkey PSMA, full length; experiment: FACS, whole cell binding, cyno PSMA HEK
# Procedure: as §2
# [7] = target: T1, chimpanzee PSMA, full length; experiment: FACS, whole cell binding, chimp PSMA HEK; calculated EC50
# Procedure: as §2
# [8] = target: T2, Cynomolgous monkey PSMA, full length; experiment: FACS, whole cell binding, cyno PSMA HEK; calculated EC50
# Procedure: as §2
# [9] = target: T5, human PSMA (prostate specific membrane …); experiment: FACS, whole cell binding, LNCaP; calculated EC50
# Procedure: as §2
Binder,binding result [1],binding result [2],EC50 (read off the curve) [3] [µg/mL],also measured
B1,binds,binds,,
B2,binds,binds,,
B3,binds,binds,,
B4,binds,binds,,
B5,binds,binds,,
B6,,,~2,
B7,,,,EC50 [4]: 0.0715 µg/mL; EC50 [5]: 0.05 µg/mL; EC50 [6]: 0.371 µg/mL; EC50 [7]: 0.34 nM; EC50 [8]: 2.6 nM; EC50 [9]: 0.5 nM
B8,,,~0.1,
B9,,,~2,
